{"source": "patent US20050100540A1", "about": "“Platelet-activating factor acetylhydrolase” (priority 1993, published 2005)", "molecules": {"B1": {"name": "pUC trp AH Met1: PAF-AH from entire coding sequence beginning at the initiating methionine, E. coli, trp promoter (protein, UniProt Q13093 1-441, looked up)", "chain": "MVPPKLHVLFCLCGCLAVVYPFDWQYINPVAHMKSSAWVNKIQVLMAAASFGQTKIPRGNGPYSVGCTDLMFDHTNKGTFLRLYYPSQDNDRLDTLWIPNKEYFWGLSKFLGTHWLMGNILRLLFGSMTTPANWNSPLRPGEKYPLVVFSHGLGAFRTLYSAIGIDLASHGFIVAAVEHRDRSASATYYFKDQSAAEIGDKSWLYLRTLKQEEETHIRNEQVRQRAKECSQALSLILDIDHGKPVKNALDLKFDMEQLKDSIDREKIAVIGHSFGGATVIQTLSEDQRFRCGIALDAWMFPLGDEVYSRIPQPLFFINSEYFQYPANIIKMKKCYSPDKERKMITIRGSVHQNFADFTFATGKIIGHMLKLKGDIDSNVAIDLSNKASLAFLQKHLGLHKDFDQWDCLIEGDDENLIPGTNINTTNQHIMLQNSSGIEKYN", "modifications": "full-length"}, "B2": {"name": "V279F: PAF-AH with phenylalanine for valine at position 279, mutation of PAF-AH deficient individuals, expressed in E. coli (protein)", "chain": "B1 chain with V279F"}, "B3": {"name": "S273A: PAF-AH amino acid substitution product expressed in E. coli (protein)", "chain": "B1 chain with S273A"}, "B4": {"name": "H395A, H399A: PAF-AH double amino acid substitution product expressed in E. coli (protein)", "chain": "B1 chain with H395A, H399A"}, "B5": {"name": "D304A: PAF-AH amino acid substitution product expressed in E. coli (protein)", "chain": "B1 chain with D304A"}, "B6": {"name": "D296A: PAF-AH amino acid substitution product expressed in E. coli (protein)", "chain": "B1 chain with D296A"}, "B7": {"name": "S108A: PAF-AH amino acid substitution product expressed in E. coli (protein)", "chain": "B1 chain with S108A"}, "B8": {"name": "C407S: PAF-AH cysteine to serine mutant expressed in E. coli (protein)", "chain": "B1 chain with C407S"}, "B9": {"name": "C334S: PAF-AH cysteine to serine mutant expressed in E. coli (protein)", "chain": "B1 chain with C334S"}, "B10": {"name": "D286A: PAF-AH amino acid substitution product expressed in E. coli (protein)", "chain": "B1 chain with D286A"}, "B11": {"name": "C67S: PAF-AH cysteine to serine mutant expressed in E. coli (protein)", "chain": "B1 chain with C67S"}, "B12": {"name": "D338A: PAF-AH amino acid substitution product expressed in E. coli (protein)", "chain": "B1 chain with D338A"}, "B13": {"name": "C291S: PAF-AH cysteine to serine mutant expressed in E. coli (protein)", "chain": "B1 chain with C291S"}, "B14": {"name": "C229S: PAF-AH cysteine to serine mutant expressed in E. coli (protein)", "chain": "B1 chain with C229S"}, "B15": {"name": "D286N: PAF-AH amino acid substitution product expressed in E. coli (protein)", "chain": "B1 chain with D286N"}, "B16": {"name": "H351A: PAF-AH amino acid substitution product expressed in E. coli (protein)", "chain": "B1 chain with H351A"}, "B17": {"name": "Wild type: Wild type human PAF-AH expressed in E. coli, reference of Table 8 (protein, UniProt Q13093 22-441, looked up)", "Platelet-activating factor …": "FDWQYINPVAHMKSSAWVNKIQVLMAAASFGQTKIPRGNGPYSVGCTDLMFDHTNKGTFLRLYYPSQDNDRLDTLWIPNKEYFWGLSKFLGTHWLMGNILRLLFGSMTTPANWNSPLRPGEKYPLVVFSHGLGAFRTLYSAIGIDLASHGFIVAAVEHRDRSASATYYFKDQSAAEIGDKSWLYLRTLKQEEETHIRNEQVRQRAKECSQALSLILDIDHGKPVKNALDLKFDMEQLKDSIDREKIAVIGHSFGGATVIQTLSEDQRFRCGIALDAWMFPLGDEVYSRIPQPLFFINSEYFQYPANIIKMKKCYSPDKERKMITIRGSVHQNFADFTFATGKIIGHMLKLKGDIDSNVAIDLSNKASLAFLQKHLGLHKDFDQWDCLIEGDDENLIPGTNINTTNQHIMLQNSSGIEKYN"}}, "note": "Numbering of substitutions follows the chain as printed. Numbers in names are those of the source.", "data": [{"test": "PAF-AH activity of E. coli constructs with extended amino termini (lysate, media)", "assay_type": "biochemical", "settings": "E. coli lysate, trp promoter", "method": "(§1) PAF-AH activity in transfectant supernatants was determined by the method of Stafforini et al. (1990), supra, with the following modifications. Briefly, PAF-AH activity was determined by measuring the hydrolysis of ^3H-acetate from [acetyl-^3H) PAF (New England Nuclear, Boston, Mass.). The aqueous free ^3H-acetate was separated from labeled substrate by reversed-phase column chromatography over octadecylsilica gel cartridges (Baker Research Products, Phillipsburg, Pa.). Assays were carried out using 10 μl transfectant supernatant in 0.1M Hepes buffer, pH 7.2, in a reaction volume of 50 μl. A total of 50 pmoles of substrate were used per reaction with a ratio of 1:5 labeled: cold PAF. Reactions were incubated for 30 minutes at 37° C. and stopped by the addition of 40 μl of 10M acetic acid. The solution was then washed through the octadecylsilica gel cartridges which were then rinsed with 0.1M sodium acetate. The aqueous eluate from each sample was collected and counted in a liquid scintillation counter for one minute. Enzyme activity was expressed in counts per minute.\n(§2) and encompassed the termination codon of sAH 406-3 and contained an EcoRV cloning site. PCR reactions were performed essentially as described in Example 3. The resulting PCR product was digested with XbaI and EcoRV and subcloned into a pBR322 vector containing the Trp promoter [deBoer et al., PNAS. 80:21-25 (1983)] immediately upstream of the cloning site. E. coli strain XL-1 Blue was transformed with the expression construct and cultured in L broth containing 100 μg/ml of carbenicillin. Transformants from overnight cultures were pelleted and resuspended in lysis buffer containing 50 mM Tris-HCl pH 7.5, 50 mM NaCl, 10 mM CHAPS, 1 mM EDTA, 100 μg/ml lysozyme, and 0.05 trypsin-inhibiting units (TIU)/ml Aprotinin. Following a 1 hour incubation on ice and sonication for 2 minutes, the lysates were assayed for PAF-AH activity by the method described in Example 4. E. coli transformed with the expression construct (designated trp AH) generated a product with PAF-AH activity.\n(§3) Several E. coli expression constructs were also evaluated which produce PAF-AH with extended amino termini. The N-terminus of natural plasma PAF-AH was identified as Ile42 by amino acid sequencing (Example 2). […] Acids Res., 14:4683-4690 (1986)]. Presumably a more classical signal sequence (M1-A17) is recognized by the cellular secretion system, followed by endoproteolytic cleavage. The entire coding sequence for PAF-AH beginning at the initiating methionine (nucleotides 162 to 1487 of SEQ ID NO: 7) was engineered for expression in E. coli using the trp promoter. […] Another expression construct, beginning at Val18 (nucleotides 213 to-1487 of SEQ ID NO: 7), produced active PAF-AH at about one third the level of the original construct.", "units": {"PAF-AH activity, Lysate": "U/ml/OD600"}, "values": [{"molecule": "B1", "PAF-AH activity, Lysate": 3.1}]}, {"test": "PAF-AH activity of E. coli constructs with extended amino termini (lysate, media)", "assay_type": "biochemical", "settings": "E. coli media, trp promoter", "method": "as §1, §2, §3", "units": {"PAF-AH activity, Media": "U/ml/OD600"}, "values": [{"molecule": "B1", "PAF-AH activity, Media": 0.003}]}, {"test": "PAF-AH activity of amino acid substitution products expressed in E. coli", "assay_type": "biochemical", "settings": "control construct lacking the mutation fully active", "description": "(§4) By site-directed mutagenesis and PCR, individual codons of the human PAF-AH coding sequence were modified to encode alanine residues and were expressed in E. coli. […] The distances between active site residues is similar for PAF-AH (Ser to Asp, 23 amino acids; Ser to His, 78 amino acids) and other lipases. […] Cysteines are often critical for the functional integrity of proteins because of their capacity to form disulfide bonds. The plasma PAF-AH enzyme contains five cysteines. To determine whether any of the five is critical for enzyme actvity, each cysteine was mutated individually to a serine and the resulting mutants were expressed in E. coli. As shown below in Table 8, a significant but not total loss of PAF-AH activity resulted from the conversion of either Cys229, r Cys291 to serine. Therefore, these cysteines appear to be necessary for full PAF-AH activity. Other point mutations had little or no effect on PAF-AH catalytic activity. In Table 8, “++++” represent wild type PAF-AH activity of about 40-60 U/ml/OD600, “+++” represents about 20-40 U/ml/OD600 activity, “++” represents about 10-20 U/ml/OD600 activity, “+” represents 1-10 U/ml/OD600 activity, and “−” indicates <1 U/ml/OD600 activity.\n(§5) To test whether this mutation crippled the enzyme, an E. coli expression construct containing the mutation was generated by methods similar to that described in Example 10. […] This amino acid substitution presumably results in a structural modification which causes the observed deficiency of activity and lack of immunoreactivity with the PAF-AH antibodies of the invention.", "values": [{"molecule": "B2", "PAF-AH activity of E. coli expression construct containing the mutation": "no PAF-AH activity"}]}, {"test": "PAF-AH activity of amino acid substitution products expressed in E. coli", "assay_type": "biochemical", "settings": "point mutants expressed in E. coli", "description": "as §4, §5", "values": [{"molecule": "B3", "PAF-AH activity": "− (“−” indicates <1 U/ml/OD600 activity)"}, {"molecule": "B4", "PAF-AH activity": "++++ (“++++” represent wild type PAF-AH activity of about 40-60 U/ml/OD600)"}, {"molecule": "B5", "PAF-AH activity": "++++ (“++++” represent wild type PAF-AH activity of about 40-60 U/ml/OD600)"}, {"molecule": "B6", "PAF-AH activity": "− (“−” indicates <1 U/ml/OD600 activity)"}, {"molecule": "B7", "PAF-AH activity": "++++ (“++++” represent wild type PAF-AH activity of about 40-60 U/ml/OD600)"}, {"molecule": "B8", "PAF-AH activity": "+++ (“+++” represents about 20-40 U/ml/OD600 activity)"}, {"molecule": "B9", "PAF-AH activity": "++++ (“++++” represent wild type PAF-AH activity of about 40-60 U/ml/OD600)"}, {"molecule": "B10", "PAF-AH activity": "− (“−” indicates <1 U/ml/OD600 activity)"}, {"molecule": "B11", "PAF-AH activity": "+++ (“+++” represents about 20-40 U/ml/OD600 activity)"}, {"molecule": "B12", "PAF-AH activity": "++++ (“++++” represent wild type PAF-AH activity of about 40-60 U/ml/OD600)"}, {"molecule": "B13", "PAF-AH activity": "+ (“+” represents 1-10 U/ml/OD600 activity)"}, {"molecule": "B14", "PAF-AH activity": "+ (“+” represents 1-10 U/ml/OD600 activity)"}, {"molecule": "B15", "PAF-AH activity": "++ (“++” represents about 10-20 U/ml/OD600 activity)"}, {"molecule": "B16", "PAF-AH activity": "− (“−” indicates <1 U/ml/OD600 activity)"}, {"molecule": "B17", "PAF-AH activity": "++++ (“++++” represent wild type PAF-AH activity of about 40-60 U/ml/OD600)"}]}]}
